The DeepSol protein solubility set

Assay: soluble on expression in E. coli; label from the status in PepcDB or PDB records

Sequence | soluble on expression in E. coli
MGSDKIHHHHHHMKIAQVAPLWERVPPPSYGGIELVVSHLTNELVRRGHEVTLFASGDSQTLAHLETVCPRALRLDKNVQDYAAYETLELSQVYQNATEFDIIHSHLGISALPLANLVKTPTVHTLHGHFTKDNQNVFSHHHQQPYVSISNAQRQIHLNYIKTVYNGIEPKDYPFISQPKEPPYLAFLGRFSPEKGPHQAIAIAKQSGWRLKMAGKVDIVDAKFFEQEILPHIDGQQIEYLGEINHTEKAELLGNAAATLFPINWQEPFGLVMIESMATGTPVIGMNLGSVPEVIDQGKTGFICRTYEEMIQMIAVTLELDRRDCRESVVNKFSVSHMVDGYEAVYQQIIKDRVNLNGYIHTAKIRF | not soluble
MGSDKIHHHHHHMKIDMRNISKSFGTNKVLEKIDLELQSGQIHALMGENGAGKSTLMNILTGLFPASTGTIYIDGEERTFSNPQEAEEFGISFIHQEMNTWPEMTVLENLFLGREIKTTFGLLNQKLMRQKALETFKRLGVTIPLDIPIGNLSVGQQQMIEIAKSLLNQLSILVMDEPTAALTDRETENLFRVIRGLKQEGVGVVYISHRMEEIFKITDFVTVMRDGVIVDTKETSLTNSDELVKKMVGRKLEDYYPEKHSEIGPVAFEVSNLCGDNFEDVSFYVRKGEILGFSGLMGAGRTEVMRTIFGIDKKKSGKVKIDDQEITITTPSQAIKQGIGFLTENRKDEGLILDFNIKDNMTLPSTKDFSKHGFFDEKTSTTFVQQLINRLYIKSGRPDLEVGNLSGGNQQKVVLAKWIGIAPKVLILDEPTRGVDVGAKREIYQLMNELADRGVPIVMVSSDLPEILGVSDRIMVMHEGRISGELSRKEADQEKVMQLATGGK | not soluble
MGSDKIHHHHHHMKIEINPVSRIEGHAKVTIFLDSSGKVENAFFQATEFRGYEKILSGLPMEEVPRVVSTICGICRAIHFTAALKAADQVFGVEASDAAKIVREMLLCAHFIEDHTLSLLALALPDFLSPEERNIFGVIRNLGELGRELLRKRGYAVRILQILGGRNIHPVTALPGGWAKAPTDEELGLIERYSRELLDLGYRMVEVLEAALDMGDGLELRAATLGTEKKGLVNLYDGEQVVKDEEGKEVLRFSGKEYADIITEKSLSWSYSKLTEIKPLGEKLYVVGPLARLKTAELTPKASEIVKTYGVSNNLLYNHFARAVEIIYAAERLLELSQSYRGGRIQNEPQKVAGEGVGIVEAPRGTLIHHYWTDEKGIVRGSNLIVATTHNVRAINHVVGKVAERASDTRNLAEKVEVAIRAFDPCMACATHAVNGVIPIEIQIFRDGELEEVYRNYEESCCGSGQSTHS | not soluble
MGSDKIHHHHHHMKIIKLRNNSPEFNYKMIVLARESRGIGQRELATLVETDQGNLSRIEKGAQTPVKDMIERISKALDYPVSFFRLQHSVYDFSKSYYRRKLKMPKKEIELSEAKINISKINIETLIRAVELPEPNYPTFDLSKDLSASACAIQLRKYWKLPHGRVENFTKVLEDNGVLVANIDFAGIEVDGHAILTENNLPIIFINKNITADRYRLTLAHELGHLCLHVGREIAEDRDVEQEAFMFAAELLTPEVEIAPDLCEVSIEKLKELKKYWKVSMGSLLKRAHVLKGVSDNQYKYLWQQMGNMGYKTVEPKELEFEKEKPKLLKEIIDAHLEELQYSEDELSELLGLKIQEFAKSYAPARPRLRVSKGKAR | not soluble
MGSDKIHHHHHHMKILVAMSGGVDSTVTAYKLKNLGHEVIGCYMKLHGKPNYHEENIKKVEKVANFLQIPYHILDLQEDFKNKVYMPFVDTYKEGKTPNPCALCNRFIKLGKLLEFAKSLGCEKLATGHYARLENNLIKTAVDESKDQSYFLASADKEALKYLIFPLGEMKKEDVKKFASTIEVLKSFATQKESSEICFVEDTYVQVLDQFMDTKIPGEVLDSSGKVVGKHEGYMHYTIGKRRGFEVRGAHEPHFVLKINPKQNQIIVGTKEELKISEFNLKNINLFIDAKELDCEVKIRYRSKSTPCKVEIYEDKSAKIILKDPVYGLASGQMAVFYDHDKVIASGFIE | not soluble
MGSDKIHHHHHHMKKAIVLCAGKGTRLRPLTFTTAKHLIPIANKPILFYSLENIARAGIEEVGIVVSPHNAEEFKSIVGTGENFGLRISYIIQEEPKGLAHAVWVSREFLGDEDFMMYLGDNLILEDLGKFVKDFENSDYAASILLSPVKDPTRFGVAVMEGDRVIKVVEKPKTPPSNLAIVGLYLFRNKIFEGIKNIKPSWRGELEITDAIEYLIEKGEKVRGYIVYGWWKDTGKPEDLLEANRKILMETTEELLGEMDDKSSIQGPVRIGKASKIVNSVIRGPAVIGENCFIKNSYVGPYSSIGNRVILEDCEVENSIVMDECSITGVEKRIDSSILGKGVSVKGSQKRPASLNLILGNMSRVEL | not soluble
MGSDKIHHHHHHMKKILVVGDFIKGSGLTNYLLNIYSSLPKDEFLISCVSYSGQHNIDTVLEEKKWEKFEVTPITQDIIKHFKDWNNFFKLHGNDFDEIHFNYSAPWNFIAILLAKLKSKAKIIVQSHNNYYSKQPKGLQKKVLAVLNVTGRTVIGRCSDIRLAVSEDSAQWMFGKRNVQILKNGINLKDFEYQPGPREELRKSIGINKGKKIIGFVGTLEKRKNPYFAIECLKKLNKEYILLMFGQGVLKKDLEKKIMDEGLEHRIKLMGVVDNLNEWYSVFDLFLFPSLTEGFGFALLEAQANGLKCFSSTSIPKEAKITNDVTSLNLSEINKWIDEIEKTSINDRERRSKQNCRIIEKKGFSIENTSKQFKRILLGDLS | not soluble
MGSDKIHHHHHHMKKLHGFENEYLFVLPPVILNNFNFSKVIKLLYITDLGFYPKARYHFVHRDRGTEEWILIFCTHGKGVVKSATEEWLIESGSIVLLPPGKEHTYYAFDDDPWDIFWAHFNGDSVNEYIPQEALQGNGFLVINKTSTEDMQMLMSQFWQMIQALSAGFSYQSVFYSSQVLGATLAYVSLQSVLPHDSYTMGNEYITKAVKYIYDHFEEKVSLSTLTEVLDVSKSYLSRIFRQTVGTSVNQFILDIKMKQACYYLKDTNLAVHQIASRLGYDDPYYFSRIFKKVVGSSPRVFRKQEKNRL | not soluble
MGSDKIHHHHHHMKKLIAGVLVLTILGSCGNKKTNIDPFASITQEVDSIRHKADSIHQEELPEEPKPTEADESFDDFIYNFASDDALQRQRVKFPLPYYKGDEKTNIEERNWKHDDLFTKQHYYTLLFDKEEDMDLVGDTSLTSVQVEWIFVKTRMVKKYYFERIKGAWILEAINLRPVERNENEDFVEFFSHFAADSLFQSRRVQEPLAFVTSDPDDDFSILETSLDLNQWFAFKPALPTDRLSNINYGQRNDDNSPTKILALKGIGNGFSNILYFRRKAGEWQLYKFEDTSI | not soluble
MGSDKIHHHHHHMKKLLFIVNVDWFFISHRLPIAIDALKKGYTVTIACHFTSHKQELIDMGFNVLEIPFSRSGAGILSELNTLKCIRKVINDVNPSLIHAVTIKPVLYTGLVLKSINRNIPFVAAISGLGYVFTASTLRAKLTRFIASAFYKVALSQKYKMVIFQNTSDENILTKVAKLESSDKFLIKGSGADLSVYNFSPENLDNRTSIVMACRLLREKGVYVYVDAAKLVKEHFPEAEFLLVGTPDLENPNTVKQVEIDQWVSDGTIKYLGHRNDIPSIFANSNIVCLPSFYGEGVPKVLIEAAACGRAIVTTDNPGCKDAIINEVTGIAVPVRDAQSLALAIIKLLDDPALRISMGKKGRSFAEQEFDVRAVVTKHLDIYNELLQK | not soluble
MGSDKIHHHHHHMKKLLRNLFGSGREEEKRSASDAMSGREQIVTNSEKSNLSTDPDHVNRQADTLKFDAIRAMNMGELVFATEALRKAMELRPEFETRYYLTEALLRRHLTEEALAQMNLLLEEVPMHTATLLNRAKLRLEQNDPSRALEDCGTGIESTSELEEQALFLYYGASAMKDMKNLKDALCLLKQAIEKNDAFIPARLLRARILIDLERYEEATQDLDWVAASDPEEEQVPMLRARLFMLEGKQQNAIQAYEELLSLDPFNEEGHCGIATLMIKEGRSAEAETFLREAIEEMPVQRNLILMLVEILENKGQTQEAAEWRAKLPEAEVESEAVNFNDLYKGNLY | not soluble
MGSDKIHHHHHHMKKMLKPFYNWLRLKLQFLEEAYYFWLLLCRHNASVNTEASMKKMQYILLREAHVIEKGMSMRNPRKGFGQAKILIMLQNLNRYYDLYSTEDLDFLKFPISTVGSYIQYTNEMGIDITKIEQQYLNLVSRTGFQNLNRHSGIESIAKSDILKECNKTFESLLYSRHSIRYFDNKIPSKEMLEKALKLASRTPSACNRQGWLTHIFIGEKSYSLLQWQGGSNGFEKEIHCSILVTANLNAFLSYEVHQAYVDGGLYAMNLLNALHSLGLGTIPLSCGFGYSKLRMLKKQFYIPENEVPIMIIGVGELLDHFNVAISMRRDVSTTNTYHY | not soluble
MGSDKIHHHHHHMKKVLTAALLMTAPFMANAGADFVKGDKTFAGEAELGATLTTGNTDTSSYKGRLNFKHELGDWENQYLLEGLYKEDTGAVTAKRYLAGAQGNYKMNDRSYWFANANYEVDPFTGYDYTLSGATGYGHRLLDTSKTFLDVEIGPGYIYQRLDSEQALLEGTDSNDSVVAHGVINFETEITETSKFQQRFVADYGEKLDARSETSLTANIIGALAMKFAIIVRYNSEPLDDKKSTDTETNMTLLYSF | not soluble
MGSDKIHHHHHHMKLAVYVHVPFCKSKCVYCDFYSVVSEKFDEYFSHLLREIDLYEEVLSESEIKTVYFGGGTPSVVPPSFLKMVLEKLERVSRGFTPDEITIEVNPESVETEKLKIYKQIGINRISLGVQACDDTVLKNAGRLYKEETLKKKAKIVLEQFENVNFDFILGLPGETDITLKKDFRFLEEFPPQHVSLYLLEVDERTRLFDLIQKGLVELPEEDDVERRHDLFVEFLKERGFLRYEISNFAKPGKKSLHNLFYWRNENYLGLGVSAGGHIGRFRYVNASDLKEYEEKITKGELPYEYVHENTEEEEALETVFMGLRIKEGVELNRVKILLPLLEKLQKKYPCYLKVKNGKIFLSEDGMNFSKKILSDLIEWYREGGR | not soluble
MGSDKIHHHHHHMKLETIDYRAQDSAQRFVESLRETGFGVLSNHPIDKALVDTIYEEWQAFFNSDEKHDYLFKPETHDGFFPADVSETAKGHTVKDIKEYYHVYPWGRIPDSLRENILRYYQEANALAEELLGWVEAHTPAEVAVNYSIALPKMIENSHKTLLRILHYPPMSGDEELGAIRAAAHEDINLLTVLPAANEPGLQVKAKSGEWLDVPSDFGNLIINIGDMLQEASGGYFPSTTHRVVNPEGADKTRSRISLPLFLHPKPEVVLSERYTADSYLMERLRELGVI | not soluble
MGSDKIHHHHHHMKLGLLTAPFAETPLADVAAWASSAGFEALEIACWPKTSGATRRYAGTSHIDAASTSPAQAKEITASLAEKHLTISGLGYYPNPLHPDAAHREAVIGHLKKVIELAANMGVPVVNTFCGGDASKTVDVNWQDALKVWPEIVAFARGHGIKLAFENCPMIFSYDEWPGGHNIAYSPQVWRRILETWGGDIGMNFDPSHLVWQMIDQARFIREFGPYMLHVHAKDLMIDHDGLYERGILSAGIGWQVPRMPGLGDVDWSGFFSGLYRAGYDGSVIIEHEDRRFEGSDEQVKRGFLLARDVLRPYVK | not soluble
MGSDKIHHHHHHMKLISVKRIWEQGAHNAFTDLIRFQGALFCVFREGTAHVSPDGALRILRSADLGDTWQSVALIRSDEADLRDGKLIEYQGELLLLGGGTLHDKSGLQSHLWRSLDGLVWSDALKIGDKGYWLWRLTEYQNALYGVGYRAGPDGDTRLYKSDDGVQFETWLMVFNNQGYVNESAIVFDQDNGFCLLRRDPVWGPEYVGLLGCSQAPFIDWQWQELDKRIGGPVMLMYQSRLLAVVRLYDEQVRTALVEIHPDTGVVQELLTLPSKGDTSYAGVVIDGNELWVSYYSSHEIANAQLDAQNVQNESSISTQAKTMIYFAKIQLVGEF | not soluble
